Test results taken from US20210024604A1, “NOVEL INSULIN DERIVATIVES” (Novo Nordisk A/S, priority 2009, published 2021).

What was measured:
human serum albumin = biological target: T1, human serum albumin (Homo sapiens, UniProt P02768); test: Elution from immobilized human serum albumin column; shift in retention time with glucose in eluent; type: binding; details: retention time with no glucose vs 50 mM glucose in eluent, HSA column
T1 construct: purchased Chromtech Inc HSA 50.3 column
Method: The glucose sensitivity of insulin albumin binding can be determined by tuning glucose levels in the elution buffer and determine the shift in retention time as a function of the glucose concentration, table 1 below.
T 37° C., flow 0.7 mL/min, 20 uL of 10 uM samples, UV monitor 220 nm.
Compounds marked with an asterix were eluted with a gradient to 70% buffer B.

[1] = rat, in vivo, iv
Method: 30 male, fed Wistar rats (250 g) and 30 male, fed ZDF rats (350 g, 12 weeks old) were anesthetized using Hypnorm-Dormicum (0.081 mg/ml fentanyl citrate (VetaPharma Ltd.), 1.25 mg/ml Midazolam (Roche)) 2 ml/kg as a priming dose and additional 1 ml/kg to timepoint −5 min prior to test substance dosing, and then 1 ml/kg every 45 minutes (4 times).
Both the Wistar rats and the ZDF rats were allocated into 5 groups, 6 rats in each (eg 10 groups in total). […] Two doses of each analogue were tested: 1.2 nmol/kg or 3.6 nmol/kg in Wistar rats, and 3.6 nmol/kg or 7.2 nmol/kg in ZDF rats. Blood samples of 100 μl (tail tip capillary puncture) for determination of plasma insulin were collected in microvette tubes at time 3, 15, 30, 60, 120, 180 and 240 minutes after insulin dosing.

[2] = pH 7.4, 37° C., gradient to 50% buffer B

| Substance | Δ Rt (human serum albumin; marked *: eluted with a gradient to 70% buffer B) [min] | Δ Rt (human serum albumin; [2]) [min] | elimination compared with insulin of example 24 [1] |
| --- | --- | --- | --- |
| A22M-15-(3,5-Diboronobenzoylamino)pentadecanoyl B29M-15-(3,5-diboronobenzoylamino)pentadecandioyl A22K desB30 Human Insulin [Example 16] | 0.7 |  |  |
| B29M-{4-[16-(3-Boronobenzenesulfonylamino)hexadecanoylsulfamoyl]butanoyl} desB30 Human Insulin [Example 14] |  | 0.8 |  |
| B29N^ε-16-(2,3-Difluoro-4-boronobenzoylamino)hexadecanoyl A14E B25H des B30 Human Insulin [Example 22] |  | 1.5 | eliminated faster |
| B29N^ε-16-(2,3-Difluoro-4-boronobenzoylamino)hexadecanoyl desB30 Human Insulin [Example 6] |  | 2.8 |  |
| B29N^ε-16-(2,3-Difluoro-4-boronobenzoylamino)hexadecanoyl-γ-L-glutamyl desB30 Human Insulin [Example 4] |  | 1.8 |  |
| B29N^ε-16-(2,6-Difluoro-4-boronobenzoylamino)hexadecanonyl desB30 Human Insulin [Example 9] |  | 2.5 |  |
